System: peptide library, one residue held at a place counted from the S/T acceptor
Experiment: relative phosphorylation of the sub-library (ratio to the mean residue at this position); higher = residue favoured
Settings: human
Outline: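 Purified recombinant kinases, either human or orthologue constructs, were incubated in 384-well plates with biotinylated degenerate peptide sub-libraries. Each sub-library fixed one residue at one position around a central Ser/Thr. Peptides at 50 μM and 50 μM ATP spiked with γ-32P-ATP were used for 90 min under kinase-specific conditions, and spots on streptavidin membranes were phosphorimaged and quantified by densitometry. Relative sub-library phosphorylation is expressed as a ratio to the mean residue at that position.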

Chain of LRRK2, construct: aa960-end (Q5S007 960-2527, looked up): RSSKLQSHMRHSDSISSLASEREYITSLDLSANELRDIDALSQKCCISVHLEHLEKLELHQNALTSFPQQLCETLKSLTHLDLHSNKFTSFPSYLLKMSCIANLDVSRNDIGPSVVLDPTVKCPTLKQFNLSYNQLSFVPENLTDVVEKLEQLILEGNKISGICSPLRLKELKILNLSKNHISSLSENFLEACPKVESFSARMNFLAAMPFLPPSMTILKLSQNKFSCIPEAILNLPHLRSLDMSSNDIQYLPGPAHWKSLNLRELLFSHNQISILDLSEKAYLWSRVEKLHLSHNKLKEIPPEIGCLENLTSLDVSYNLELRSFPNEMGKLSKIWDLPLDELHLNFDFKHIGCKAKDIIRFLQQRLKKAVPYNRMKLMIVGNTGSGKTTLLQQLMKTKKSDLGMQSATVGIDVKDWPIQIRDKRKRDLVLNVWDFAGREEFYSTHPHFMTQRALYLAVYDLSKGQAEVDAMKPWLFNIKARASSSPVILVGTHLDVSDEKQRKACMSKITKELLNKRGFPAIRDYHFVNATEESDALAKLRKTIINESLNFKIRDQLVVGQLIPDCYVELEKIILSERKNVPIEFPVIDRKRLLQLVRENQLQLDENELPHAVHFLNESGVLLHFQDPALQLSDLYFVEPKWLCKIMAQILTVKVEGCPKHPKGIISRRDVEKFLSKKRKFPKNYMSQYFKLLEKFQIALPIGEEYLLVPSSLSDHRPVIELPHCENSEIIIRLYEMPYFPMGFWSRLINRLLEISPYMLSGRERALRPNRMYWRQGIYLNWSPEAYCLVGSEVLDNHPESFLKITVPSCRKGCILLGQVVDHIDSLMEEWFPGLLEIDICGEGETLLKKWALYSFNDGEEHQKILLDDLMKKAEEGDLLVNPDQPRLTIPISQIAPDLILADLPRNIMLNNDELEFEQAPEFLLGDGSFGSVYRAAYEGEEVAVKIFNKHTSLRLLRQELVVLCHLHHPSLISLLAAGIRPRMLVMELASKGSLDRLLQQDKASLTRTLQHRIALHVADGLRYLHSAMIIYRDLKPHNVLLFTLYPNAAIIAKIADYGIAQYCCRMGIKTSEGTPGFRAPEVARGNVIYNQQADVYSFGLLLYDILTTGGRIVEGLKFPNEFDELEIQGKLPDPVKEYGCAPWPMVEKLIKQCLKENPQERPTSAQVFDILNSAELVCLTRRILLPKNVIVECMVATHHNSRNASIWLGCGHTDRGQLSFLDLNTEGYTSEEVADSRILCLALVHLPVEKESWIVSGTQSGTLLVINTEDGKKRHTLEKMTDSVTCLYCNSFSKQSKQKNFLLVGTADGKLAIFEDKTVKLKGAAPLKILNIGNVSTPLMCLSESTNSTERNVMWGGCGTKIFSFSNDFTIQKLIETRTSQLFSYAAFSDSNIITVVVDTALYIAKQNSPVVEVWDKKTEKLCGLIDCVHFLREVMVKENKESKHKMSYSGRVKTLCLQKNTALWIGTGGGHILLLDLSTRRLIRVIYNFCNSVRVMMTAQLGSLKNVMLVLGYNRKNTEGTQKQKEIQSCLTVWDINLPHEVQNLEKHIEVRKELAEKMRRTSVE
Chain of HIPK4, construct: Full length (Q8NE63 whole entry, looked up): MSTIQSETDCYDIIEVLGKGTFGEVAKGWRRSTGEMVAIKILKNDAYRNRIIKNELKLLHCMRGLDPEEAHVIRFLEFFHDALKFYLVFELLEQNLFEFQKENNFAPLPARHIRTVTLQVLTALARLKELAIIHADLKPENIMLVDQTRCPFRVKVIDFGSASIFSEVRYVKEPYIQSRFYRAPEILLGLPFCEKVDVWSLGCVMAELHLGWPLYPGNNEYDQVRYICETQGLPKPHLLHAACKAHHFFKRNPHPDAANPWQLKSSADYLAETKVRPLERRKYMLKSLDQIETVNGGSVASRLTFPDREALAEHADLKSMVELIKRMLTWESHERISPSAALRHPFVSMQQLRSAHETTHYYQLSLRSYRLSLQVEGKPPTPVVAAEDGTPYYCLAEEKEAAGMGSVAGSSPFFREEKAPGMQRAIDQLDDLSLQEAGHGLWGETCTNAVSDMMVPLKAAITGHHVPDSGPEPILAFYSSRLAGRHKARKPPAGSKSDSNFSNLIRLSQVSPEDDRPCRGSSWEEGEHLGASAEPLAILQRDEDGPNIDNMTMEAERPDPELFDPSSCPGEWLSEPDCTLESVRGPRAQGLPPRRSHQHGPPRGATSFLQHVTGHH

HIPK4, construct: Full length (from UniProt Q8NE63)
relative phosphorylation
Settings | at +1 | at +2 | at +3 | at +4 | at -1 | at -2 | at -3 | at -4 | at -5
A fixed | 0.793 | 1.38 | 1.1 | 1.63 | 1.15 | 2.12 | 0.851 | 0.995 | 0.967
D fixed | 0.277 | 0.726 | 0.71 | 0.68 | 0.67 | 0.463 | 0.711 | 0.697 | 0.886
E fixed | 0.34 | 0.618 | 0.505 | 0.578 | 0.693 | 0.354 | 0.477 | 0.702 | 0.719
F fixed | 0.339 | 1.46 | 1.08 | 1.11 | 0.616 | 0.478 | 0.453 | 0.816 | 1.13
G fixed | 0.586 | 1.58 | 1.49 | 1.07 | 1.03 | 1.07 | 0.877 | 1.27 | 1.26
H fixed | 0.671 | 1.13 | 0.857 | 0.716 | 0.991 | 0.507 | 0.649 | 0.803 | 1.08
I fixed | 0.427 | 0.675 | 0.857 | 1.31 | 0.589 | 0.837 | 0.807 | 0.82 | 0.841
K fixed | 1 | 0.686 | 0.565 | 0.63 | 1.72 | 0.808 | 0.926 | 0.864 | 0.833
L fixed | 0.508 | 0.696 | 0.816 | 1.64 | 0.783 | 0.916 | 0.669 | 1.12 | 0.968
M fixed | 0.403 | 0.805 | 0.812 | 1.53 | 0.836 | 0.602 | 0.661 | 0.895 | 0.735
N fixed | 1.15 | 0.806 | 0.752 | 0.59 | 0.984 | 0.875 | 0.803 | 0.639 | 0.855
P fixed | 5 | 2.12 | 3.82 | 1.33 | 2.03 | 4.06 | 1.14 | 2.12 | 1.15
Q fixed | 0.894 | 0.753 | 0.657 | 0.631 | 1.23 | 0.639 | 0.799 | 0.759 | 0.842
R fixed | 3.2 | 0.719 | 0.525 | 0.503 | 1.57 | 1.35 | 5.38 | 2.01 | 1.47
V fixed | 0.684 | 0.669 | 0.647 | 1.28 | 0.687 | 1.09 | 0.615 | 0.67 | 0.793
W fixed | 0.314 | 0.988 | 0.947 | 1 | 0.592 | 0.401 | 0.562 | 0.955 | 1.25
Y fixed | 0.415 | 1.2 | 0.857 | 0.785 | 0.836 | 0.434 | 0.626 | 0.867 | 1.22
pThr fixed | 0.405 | 0.51 | 0.71 | 0.616 | 0.417 | 0.585 | 0.547 | 0.844 | 0.67
pTyr fixed | 0.36 | 0.516 | 0.998 | 0.728 | 0.619 | 0.404 | 0.561 | 0.697 | 0.898

LRRK2, construct: aa960-end (from UniProt Q5S007)
relative phosphorylation
Settings | at +1 | at +2 | at +3 | at +4 | at -1 | at -2 | at -3 | at -4 | at -5
A fixed | 0.869 | 0.867 | 0.909 | 0.908 | 0.82 | 1.05 | 0.893 | 0.985 | 1.01
D fixed | 0.525 | 0.559 | 0.696 | 0.691 | 0.639 | 0.516 | 0.675 | 0.685 | 0.698
E fixed | 0.546 | 0.451 | 0.595 | 0.673 | 0.517 | 0.477 | 0.662 | 0.719 | 0.741
F fixed | 0.874 | 1.17 | 0.884 | 1 | 0.94 | 1.95 | 1.05 | 1.23 | 1.09
G fixed | 0.82 | 0.826 | 0.894 | 0.966 | 1.17 | 1.18 | 1.06 | 1.06 | 0.993
H fixed | 0.814 | 1.02 | 1.16 | 1.18 | 1.15 | 1.18 | 1.08 | 0.949 | 1.04
I fixed | 0.996 | 0.834 | 0.649 | 0.934 | 0.482 | 0.684 | 0.74 | 0.758 | 0.906
K fixed | 1.91 | 1.44 | 1.82 | 1.39 | 1.76 | 0.755 | 1.43 | 1.12 | 1.08
L fixed | 1.15 | 0.786 | 0.755 | 0.865 | 0.812 | 0.943 | 0.85 | 0.842 | 0.858
M fixed | 1.08 | 0.952 | 0.776 | 0.949 | 0.969 | 1.35 | 0.974 | 0.957 | 1.05
N fixed | 0.977 | 0.943 | 1.12 | 1.12 | 1.03 | 0.799 | 0.881 | 0.805 | 0.83
P fixed | 0.941 | 0.724 | 0.822 | 0.794 | 0.88 | 0.943 | 1.01 | 1.1 | 0.989
Q fixed | 1.07 | 0.709 | 0.946 | 1.02 | 0.765 | 0.73 | 0.83 | 0.821 | 0.813
R fixed | 1.88 | 2.91 | 2.3 | 1.45 | 1.97 | 0.994 | 2.07 | 1.4 | 1.37
V fixed | 0.777 | 0.83 | 0.741 | 0.79 | 0.553 | 0.658 | 0.723 | 0.846 | 0.971
W fixed | 0.857 | 0.908 | 1.05 | 1.09 | 0.879 | 1.28 | 0.996 | 1.65 | 1.47
Y fixed | 0.916 | 1.07 | 0.885 | 1.17 | 1.65 | 1.51 | 1.07 | 1.08 | 1.1
pThr fixed | 0.67 | 0.672 | 0.925 | 0.822 | 0.54 | 0.782 | 0.822 | 0.859 | 0.932
pTyr fixed | 0.759 | 0.688 | 0.9 | 0.868 | 0.709 | 0.754 | 0.909 | 0.892 | 1.18

MAP3K2, construct: Full length (from UniProt Q9Y2U5)
relative phosphorylation
Settings | at +1 | at +2 | at +3 | at +4 | at -1 | at -2 | at -3 | at -4 | at -5
A fixed | 1.01 | 0.873 | 0.802 | 1.04 | 1.04 | 1.2 | 0.975 | 1.07 | 1.12
D fixed | 0.302 | 0.413 | 0.63 | 0.567 | 1.08 | 1.6 | 1.61 | 1.5 | 1.37
E fixed | 0.296 | 0.344 | 0.477 | 0.691 | 0.935 | 0.953 | 1.53 | 1.43 | 1.16
F fixed | 0.82 | 0.696 | 1.46 | 0.775 | 0.673 | 1.1 | 0.782 | 1.01 | 0.923
G fixed | 0.868 | 0.663 | 0.865 | 0.981 | 1.41 | 1.27 | 1.65 | 1.23 | 1.22
H fixed | 0.954 | 2.2 | 1.06 | 0.983 | 1.36 | 1.1 | 0.891 | 1.02 | 1.06
I fixed | 1.59 | 0.632 | 1.09 | 0.877 | 0.549 | 0.82 | 0.608 | 0.73 | 0.828
K fixed | 0.721 | 1.51 | 1.09 | 1.9 | 1.19 | 0.765 | 0.988 | 0.946 | 1.07
L fixed | 1.29 | 0.694 | 1.16 | 0.918 | 0.904 | 0.704 | 0.698 | 0.749 | 0.743
M fixed | 1.82 | 1.02 | 1.1 | 0.947 | 1.11 | 0.866 | 0.937 | 0.898 | 0.869
N fixed | 0.614 | 0.902 | 0.914 | 0.703 | 1.17 | 0.829 | 1.08 | 0.96 | 0.883
P fixed | 0.409 | 0.403 | 0.574 | 1.25 | 0.643 | 0.838 | 1.03 | 1.02 | 0.992
Q fixed | 1.02 | 1 | 0.905 | 1.12 | 1.11 | 0.853 | 0.817 | 0.793 | 0.751
R fixed | 1.09 | 1.94 | 1.32 | 1.68 | 1.39 | 0.757 | 1.18 | 0.978 | 0.95
V fixed | 1.46 | 0.828 | 0.856 | 0.816 | 0.726 | 0.979 | 0.698 | 0.849 | 1.02
W fixed | 1.81 | 0.986 | 1.51 | 0.909 | 0.662 | 0.919 | 0.747 | 0.952 | 1.08
Y fixed | 0.926 | 1.89 | 1.2 | 0.853 | 1.04 | 1.46 | 0.778 | 0.868 | 0.959
pThr fixed | 0.643 | 0.47 | 0.597 | 0.761 | 0.708 | 1.3 | 1.91 | 1.23 | 1.59
pTyr fixed | 0.42 | 0.412 | 0.645 | 0.546 | 1.08 | 2.07 | 1.3 | 1 | 1.21

MAP3K3, construct: Full length (from UniProt Q99759)
relative phosphorylation
Settings | at +1 | at +2 | at +3 | at +4 | at -1 | at -2 | at -3 | at -4 | at -5
A fixed | 0.713 | 0.684 | 0.711 | 0.953 | 0.837 | 0.924 | 0.739 | 0.897 | 0.956
D fixed | 0.304 | 0.643 | 0.767 | 0.758 | 1.28 | 1.65 | 1.39 | 1.38 | 1.12
E fixed | 0.322 | 0.539 | 0.758 | 1.04 | 1.01 | 0.958 | 1.37 | 1.23 | 1.01
F fixed | 1.32 | 0.884 | 1.38 | 0.916 | 0.902 | 1.09 | 0.946 | 0.955 | 1.11
G fixed | 0.603 | 0.488 | 0.904 | 0.904 | 1.25 | 0.969 | 1.33 | 0.913 | 0.916
H fixed | 0.779 | 2.55 | 1.03 | 0.859 | 1.24 | 0.984 | 0.918 | 0.982 | 1.13
I fixed | 1.77 | 0.745 | 1.01 | 0.961 | 0.747 | 1.02 | 0.876 | 0.892 | 0.869
K fixed | 0.516 | 1.42 | 1.19 | 1.7 | 1.18 | 0.591 | 0.998 | 1.1 | 1.15
L fixed | 1.49 | 0.808 | 1.2 | 0.821 | 0.922 | 0.794 | 0.851 | 0.93 | 0.895
M fixed | 1.74 | 1.05 | 1.11 | 0.953 | 0.943 | 1.01 | 0.902 | 1.05 | 0.944
N fixed | 0.48 | 1.03 | 0.992 | 0.962 | 1.3 | 0.932 | 1.04 | 1.01 | 1.03
P fixed | 0.34 | 0.255 | 0.361 | 0.982 | 0.482 | 0.728 | 0.723 | 0.736 | 0.744
Q fixed | 0.686 | 0.898 | 0.75 | 1.07 | 0.834 | 0.838 | 0.77 | 0.741 | 0.842
R fixed | 0.796 | 1.67 | 1.15 | 1.35 | 1.54 | 0.915 | 1.28 | 1.09 | 1.05
V fixed | 1.43 | 0.841 | 0.861 | 0.734 | 0.684 | 1.13 | 0.971 | 0.916 | 0.925
W fixed | 2.59 | 0.994 | 1.57 | 1.02 | 0.849 | 1.15 | 0.981 | 1.07 | 1.21
Y fixed | 1.11 | 1.5 | 1.26 | 1.02 | 1.01 | 1.31 | 0.912 | 1.1 | 1.08
pThr fixed | 1.12 | 1.39 | 0.824 | 1.37 | 1.23 | 2.17 | 2.37 | 1.82 | 2.48
pTyr fixed | 0.626 | 0.691 | 1.06 | 0.783 | 1.56 | 2.52 | 1.7 | 1.02 | 1.63

Reference: the supplement of paper PMC9876800
